Results as given in paper doi:10.1101/2023.06.28.546941 (bioRxiv, 2023).

T1: MEF2 MADS plus MEF2 domain (amino acids 1-90) (Drosophila, UniProt P40791 1-90)
T1 sequence (looked up): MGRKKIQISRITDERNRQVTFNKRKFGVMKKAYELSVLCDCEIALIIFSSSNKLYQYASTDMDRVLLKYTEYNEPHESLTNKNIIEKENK

T2: MEF2 (UniProt P40791 1-540)
T2 sequence: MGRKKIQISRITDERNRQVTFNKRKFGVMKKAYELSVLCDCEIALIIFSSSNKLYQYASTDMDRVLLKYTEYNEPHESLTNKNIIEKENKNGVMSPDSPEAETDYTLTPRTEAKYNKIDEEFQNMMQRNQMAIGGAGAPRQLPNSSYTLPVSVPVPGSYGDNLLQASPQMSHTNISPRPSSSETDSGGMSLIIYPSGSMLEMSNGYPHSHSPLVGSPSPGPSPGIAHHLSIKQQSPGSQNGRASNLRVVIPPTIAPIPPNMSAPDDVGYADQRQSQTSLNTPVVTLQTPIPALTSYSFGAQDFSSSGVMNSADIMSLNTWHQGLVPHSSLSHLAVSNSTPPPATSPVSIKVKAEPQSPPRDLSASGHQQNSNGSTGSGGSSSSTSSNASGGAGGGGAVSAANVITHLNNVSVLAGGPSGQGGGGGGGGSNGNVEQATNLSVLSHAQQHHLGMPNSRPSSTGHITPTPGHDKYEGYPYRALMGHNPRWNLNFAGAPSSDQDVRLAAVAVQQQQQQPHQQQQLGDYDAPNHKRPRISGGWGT


Key:
[1] = target: T1, MEF2 MADS plus MEF2 domain (amino acids …); test: pull-down
MEF2 = target: T2, MEF2; test: competition

| binding result [1] | Binder | binding result (MEF2) |
| --- | --- | --- |
| binds | MBP-fused Tin homeodomain (amino acids 301-360) (domain or fragment, Drosophila, UniProt P22711 301-360, looked up) KRKPRVLFSQAQVLELECRFRLKKYLTGAEREIIAQKLNLSATQVKIWFQNRRYKSKRGD | – |
| – | M1+T1 M1mut (dsDNA) DNA 1: GGTGTCGTCTGTTGAAGTGTGAACATTAATGCCTAGATCTAAAGCGATAAAA DNA 2: GGTTTTATCGCTTTAGATCTAGGCATTAATGTTCACACTTCAACAGACGACA | no binding |
